According to the nanobody polyreactivity screen of Harvey et al. (2022):

Assay: yeast display, Sf9 membrane polyspecificity reagent, FACS + sequencing; frameworks hold sequencing errors
Procedure, shortened: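 Nanobodies came from a synthetic yeast display library in Saccharomyces cerevisiae BJ5465, induced with galactose for 36–48 hours and stained for 1 hour at 4 °C with 10% biotinylated, detergent-solubilized Sf9 membrane reagent. Cells were enriched on streptavidin microbeads and then FACS-sorted, with low and high (top ~1%) gates set on anti-HA fluorescence for expression and streptavidin fluorescence for reagent binding. Each polyreactivity label reflects the gate a clone came from. Genes were amplified by colony PCR, sequenced by MiSeq 2 × 250 and filtered by CDR length.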

Sequence	polyreactivity (PSR sort gate)
QVQLVESGGGLVQAGGSLRLSCAASGNMFYRNGMGWYRQAPGKERQFVAAISRRGGSTYYADSVKGRFTISRDNAKNTVYLQMNSLKPEDTAVYYCATRYWPTNKGEYWGQGTQVTVSS	high polyreactivity
QVQLVDSVGGLVQAGGSLRLSCAASGSIFWTYAMGWYRQAPGKERELVATITYSDGNTYYADSVKGRFTISRDNAKNTVYLQMHSLKPEDTAVYYCNADGIYASISGYRYDYWGQGTQVTVSS	low polyreactivity
QVQHVESGGGIVQAGGSLRLSCAASGRTYAINAMGSYRQAPGKEMELLASITTRDSSTYYADSVKGRFTISRDNAKNTVYLQMKSLIPDDTAVYYCAKVKLVTYLYRLFVYGSYYWGLGTQVTVSS	low polyreactivity
QVQLVESGGGLVHAGGSLRLSCAASGRTFPTNAMGWYRQSPGKDRELVAAISWSGGGTYYADSVKGRFTISRDNAKNTIYLQMNSLKPEDTAVYYCAADDTPDTIYGSDYWGQGTQVTVSS	low polyreactivity
QVQLVESGGGLVQAGGSLRLSCAASGRTFGGYTIGWSRQAPGKERELVAAIRWSGGRTYYADSVKGRFTISRDNAKNTVYLQMNSLKPEDTAVYYCNARYVFPYYWGQGTQVTVSS	high polyreactivity
QDQLVESGGGLVQAGGSLRLSCAASGRTFKTYAMGWYRQAPGKERELVAAISYSSGRTYYADSVKGRFTISRDNAKNTVYLQMNSLKPEDTAVYYCASLGSGVPRYYYWGQGTQVTVSS	high polyreactivity
QVQLVESGGGLVQAGGSLRLSCAASGFTFYLYGMGWYRPAPGKERELVAGIDSDGRTNYADSVKGRFTISRDNAMNTVYLQMNSLKPEDTAVYYCAVEWAGGYDYYYWGQGSQVTVSS	high polyreactivity
QVQLVESCGGLDQAGGSLRLSCAASGSMFGYAMGWYRQAPGKERELVASTTYADSVKGRFTISRDNAKNTVYLQMNSLKPEDTAVYDCAADDWYTVEMEYWGQGTLVTVSS	low polyreactivity
QVHLVESGGGLVQAGGSLRLSCAASGSTFYYTAMGWYRQPPGKESELVAAISRGGGSTYYADSVKGRFTISRDNAKNTVYVQMNSLKPEDTAVYYCAARRVGGGFYTWRNPAYEYWGQGTQVTVSS	high polyreactivity
QVQLVESGGGLVQAGGSLRLSCAASGPTFQIYAMGSYRQAPGNERELDAAIRWRGGTTYYADSVKGRFTISRDNAKNTVYLQMNSLTPEDTAVYYCAADYYWSPYYVYQFDYWGQGTQVTVSS	low polyreactivity
HVQLVESGGGLVQAGGSLRLSCAASGFTFPLYALGWYRPAPGKEREVVAAIRSSGGSTYYADSVKGRFTISRDKAKNTVNLQMNSLKPEDTAVSYCAKVRSTRRLDTYYYWGQGTQVTVSS	high polyreactivity
QVQLVESVGGLVQAGGSLRLSCAASGFIFKSYSMGWYRQAPGKERELVAAISGRGGSTYYADSVKGRFTISRDNAKNTVYLQMNSLKPEDTAVYYCNVVPSTYYQYDYWGQGTQVTVSS	high polyreactivity
QVQLVESGGGLVQAGGSLRLSCAASGRIFSRSAMGWYRQAPGKERELVAAIRWSTGSTNYADSVKGRFTISRDNAKNTVYLQMNSLKPEDTAVYYCNARYYVRPYSPGYYYWGQGTQVTVSS	high polyreactivity
QVHLVESGGGLVQGGGSLRLSCAASGGTIYYYAMGWYRQAPGKERELDAANRCSGGSTYYADSVKGRFTISRDIAKNTVSLQMNSLKPEDTAVYYCPSRGGNPKGYGYLAFNYWGQGTQVTVSS	high polyreactivity
QVQLVESGGGLVQAGGSLRLSCAASVYTSNYYAMGWYRQAPGKEREFVAAITASSVSTYYADSVKGRFTISRDNAKNTVYVQMNSLKPEDTAVYYCAVVYISYTSWLWVYWLVDFDYWGQGTQVTVSS	low polyreactivity
QVQLVESGGGLVQAGGSLRLSCAASGFIFYGYTMGWYRQAPGKERELVAAITFSGGRTYYADSVKGRFTISRDNAKNTVYLQMNSLKPEDTAVYYCNARVVNYFRPRTGAREYDYWGQGTQVTVSS	high polyreactivity
QVQLEESWGGLVQAGGSLRLSCAASGSIYWEYAMGWYTPAPGKEREFVATISARGGRTYYADSVKGRFTISRDNAKNTVYLQMNSLKPEDTAVYYCANVGVFHLRDNYRFDFWGQGTQVTVSS	low polyreactivity
QVQLVESGGGLVQAGGSLRLSCAASGRIFYYNAMGWYRQAPGKERELVAGITSRGRSTYADSVKGRFTISRDNAKNTVYLQMNSLKPEDTAVYYCAAVYRLWGKDYDYWGQGTQVTVSS	high polyreactivity
QVQLVESGGGLVQAGGSLRLSCAASGSTFRYNTMGWYRQAPGKERELVAAINISSSSTYYADSVKGRFTISRDNAKNTVYLQMNSLKPEDTAVYYCAKRDYVPIATDENDDYWGQGTQVTVSS	low polyreactivity
QVQLVESGGGLVQAGCSLRLSCAASGFTFRYYAMGSYRQAPGKERELVSAISQSGGLTFYADSVKGRFTISRDNAKITVYLQMNSLKPVDTAVFYCAAGRRTYPSKYGSWGQGSQVTVSS	high polyreactivity
QVQLVESGGCLVHAGGSLRLSCAAYGSILKYNAIGWYIQAPGKERELVAAITSRGGSTYYADSVKGRFTISRDNAKNTVYLQMNSLKPEDTAVYYCNRVYLGYFRYDYWGQGTQVTVSS	high polyreactivity
QVQLVESGGGLVQAGGSLRLSCAASGRTFKLNAMGWYRQAPGKERELVAAISRNGGSTYYADSVKGRFTISRDNAKNTVYLQMNSLKPEDTAVYYCAAVRHGVSLAGYYWGQGTQVTVSS	high polyreactivity

Sequence	polyreactivity (PSR sort gate)
QVQLVESGGGLVQAGGSLRLSCAASGIIFRTYAMGWYRQAPGKEREFVAAISWSGGRTYYADSVKGRFTISRDNAKNTVYLQMNSLKPEDTAVYYCAALRSSQSKGDYWGQGTQVTVSS	high polyreactivity
QVQLVESGGGLVQAGGSLRLSCAASGSIFRTNAIGWYRQAPGRERELVAAITGSGGSTYYADSVKGRFTISRDNAKNTVYLQMNSLKPEDTAVYYCAVVGYHRDFDYWGQGTQVTVSS	low polyreactivity
QVQLVESGGGLVQAGGSLRLSCAASGRIFAYNAMGWYRQAPGKERELVAAITRSGGSTYYADSVKGRFTISRDNAKNTVYLQMNSLKPEDTAVYYCAKRYSYYIDDYWGQGTQVTVSS	low polyreactivity
QVQLVESGGGLVQAGGSLRLSCAASGSIFEYNAMGWYRQAPGKERELVAAISGNGGRTYYADSVKGRFTISRDNAKNTVYLQMNSLKPEDTAVYYCNAQTYYSTYKSTFYYWGQGTQVTVSS	high polyreactivity
QVQLVESGGGLVQAGGSLRLSCAASGSIFVVYAMGWYRQAPGKERELVAGISGRDGSTYYADSVKGRFTISRDNGKNTVYLQMNSLKPEDTAVYYSARVYWGQGTQVTVSS	low polyreactivity
QVHLVESGGGLVQAGGSLRLSCAATGRTFAGYAMGWYRQAPGKERQLVAAITNGGSTKYADSVKGRFTISRDNAKNSVYLQMNSLKPEDTAVYYCKARKRFYSGNTLMYYWGQGTQVTVSS	high polyreactivity
QDQLVESGGGLVQAGGRLRLTCAASGAIFSNYAMGWYRQAPGKERELLAAITNGVSTNYAVSVKGRLTISRDNAKNTVFLQMNSLKPEDTAVYYCAAVGYRATYRVGGYLRYYYWGQGTQVTVSS	high polyreactivity
QVQLVESGGALVQAGGSLRLSCAASGYTSILYAMGWYRQAPGKEMELVASITKSGDDTYYADSVKGRFTISRDNAKNTVYLQMNSLKPEDTAVYYCAAEYTYGDYSYVWYDYWGQGTQVTVSS	high polyreactivity
QDQLVESGGGLVQAGCSLRLSCDASGSTSYGYAMGWYRQAPGKERELVASISYSGSSTYYADSVKGRFTFSRDNAKNTVYLQMNSLKPEDTAVYYCNAKVYPCVGPKHRYDYWGQCTQVTVSS	low polyreactivity
QVHLVESGGGLVQAGGSLRLSCAASGRTFIENAMGWYRQAPGKERELVAAIFSGGSTYYADSVKGRFTISRDNAKKTVDLQLNSLKPEDTAVYYCDARFARYDWSMYYWGQGTQVTVSS	low polyreactivity
QVQLVESGGGLLQAGGSLRLSCAASGRTFYQYAMGWYRKAPGKDRELVAAITTSGRSTYYADSVKGRITISRDNAKNTVYLQMNRLKPEDTAVYYCNKDLSSTIFDYWGQGTQVTVSS	low polyreactivity
QVQLVESGGGLVQAGGSLRLSCAASGFILYFNAMGWYRQAPGKERELVAAITTDGGSTYYADSVKGRFTISRDNAKNTVYLQMNSLKPEDTAVYYCAADASTWYTEEYWGQGTQVTVSS	low polyreactivity
QVQIVESGGGLVQAVGSLRLSCAASGFIFMANAMGWYRQAPGKERELVAAITTGGRTNYADSVKGRFTISRDNAKNTVYLQMNSLKPEDTAVYYCAARYINGWVRSFYYWGQGTQVNVSS	high polyreactivity
QVQLVESGGGLVQAGGSLRLSCAASGRIFYSNAMGWYRQAPGKERELVAASRWSGTRTSYADSVKGRFTISRDNAKNTVYLQMNSLKPEDTAVYYCAAAGWYHSYWGQGTQVTVSS	high polyreactivity
QVQLVESGGGLVQAGGSLRLSCAASGFTSTLNDMGWYRQAPGKERELVAAISNGGSTYYADSVKGRFTISRDNAKNTVYLQMNSLKPEDTAVYYCAVTATAPQEGDYWGQGTQVTVSS	low polyreactivity
QVQLVESGGGLVQAGGSLRLSCAASGRIFVRYAMGWYRQAPGKERELVAAISKGGSSTYYADSVKGRFTISRDNAKNTVYLQMNSLKPEDTAVYYCAARVHGTGTLKYPNYYWGQGTQVTVSS	high polyreactivity
QVQLEESGGGLVQAGGSLRLSCAASGFTFYDYAMVWYRQAPGKERELVAAIRRSGTRTYYADSVKGRFTISRDNAKNTVYLQINSLKPEDTAVYYCAARYSYTHQRDYWGQGTLVTVSS	high polyreactivity
QVQLVESGGGLVQAGGSLRLSCAASGRILYWYAMGWYRQAPGKERELVAGIDWSGGSTYYADSVKGRFTISRDNAKNTVYLQMNSLKPEDTAVNYCNAVQNRGRGSHRGESTYYYWGQGTQVTVSS	low polyreactivity
QVHLVESGGGLVMAVGSLRLSCAASGFTFVGYAMGWYRQAPGKERELVATITRVGSTNYADSVKGRFTISRDNAKNTVYLQMNSLKPEDTAVYYCNTRRVYGHGKSPYDSWGQGTQVTVSS	low polyreactivity
QVQLVESGGGLVQAGGSLRLSCAASGSIFSPYAMGWYRQAPGKERELVAAISFRASTTYYADSVKGRFTISRDNAKNTVYLQMNSLKPEDTAVYYCAASPLYSWFWGLYDYWGQGTQVTVSS	low polyreactivity
QVQLVESVGGLVQAGGSLRLSCAASGFIFSYYAMGRYRQAPGKERELVATINFSGGRTYYADSVKGRFTISRDNAKNTVYLQMNSLKPEDTAVYYCAAVARSRAAPGVGYWGQGTQVTVSS	high polyreactivity
